Experimental data reported in patent US20180339041A1 (Kyowa Kirin, published 2018).
Each block holds one binder with its values, some of them ahead of it.

How the values were obtained:
[1] = target: T1, human protein S (derived from human serum; Enzyme Research Laboratories) (human, UniProt P07225 42-676); assay: ELISA: human protein S coated directly on the plate (2 µg/mL); biotinylated test antibody; streptavidin-HRP/TMB (Example 6, method of Example 5(5)) [F]
T1 construct: Homologue of Gas6 used as specificity control
T1 sequence (looked up): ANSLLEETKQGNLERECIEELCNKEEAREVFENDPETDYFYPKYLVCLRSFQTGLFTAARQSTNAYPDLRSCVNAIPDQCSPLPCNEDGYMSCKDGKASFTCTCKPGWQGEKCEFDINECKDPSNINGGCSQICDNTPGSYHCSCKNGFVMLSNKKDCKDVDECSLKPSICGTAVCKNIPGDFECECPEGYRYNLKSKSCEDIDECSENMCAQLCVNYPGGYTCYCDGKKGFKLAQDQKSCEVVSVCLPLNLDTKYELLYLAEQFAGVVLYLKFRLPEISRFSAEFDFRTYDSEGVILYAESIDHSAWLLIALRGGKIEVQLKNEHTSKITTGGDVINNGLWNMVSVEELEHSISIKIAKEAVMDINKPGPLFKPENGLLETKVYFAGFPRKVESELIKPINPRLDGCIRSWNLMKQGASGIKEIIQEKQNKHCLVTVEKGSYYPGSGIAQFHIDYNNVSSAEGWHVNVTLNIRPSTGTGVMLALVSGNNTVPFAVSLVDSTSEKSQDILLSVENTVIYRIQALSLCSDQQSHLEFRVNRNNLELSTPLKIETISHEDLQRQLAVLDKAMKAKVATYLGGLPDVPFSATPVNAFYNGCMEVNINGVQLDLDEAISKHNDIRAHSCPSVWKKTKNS
Procedure: First, a 2 μg/mL solution of the antigen (prepared from each antigen with PBS (manufactured by Nacalai Tesque, Inc.)) was dispensed at 50 μL/well to a 96-well plate for ELISA (manufactured by Nalge Nunc International), and the plate was left standing overnight at 4° C. for adsorption. The plate was washed five times with Tween 20-PBS. Then, 1% BSA-PBS (manufactured by Nacalai Tesque, Inc.) was added thereto at 300 μL/well, and the plate was left standing at room temperature for 1 hour for blocking and washed five times with Tween 20-PBS (manufactured by Wako Pure Chemical Industries Ltd.). Next, the hybridoma culture supernatant was dispensed thereto as a test substance at 50 μL/well, and the plate was left standing at room temperature for 1 hour and then washed five times with Tween 20-PBS. Next, polyclonal goat anti-mouse immunoglobulins/HRP (Dako Denmark A/S, P0447) diluted 2000-fold with 1% BSA-PBS was dispensed thereto at 50 μL/well, and the plate was left standing at room temperature for 1 hour. The plate was washed five times with Tween 20-PBS, and TMB (manufactured by Sigma-Aldrich Co. LLC) was added thereto at 50 μL/well and reacted. At an appropriate point in time, the reaction was terminated by the addition of 1 N hydrochloric acid (manufactured by Wako Pure Chemical Industries Ltd.) at 50 μL/well. The absorbance at a sample wavelength of 450 nm and a reference wavelength of 570 nm (450 nm-570 nm) was measured using a plate reader (Spectra Max, manufactured by Molecular Devices, LLC).
The binding activity of the obtained antibodies against human protein S was measured in the same way as in Example 5(5). […] The secondary detection reagent used was Streptavidin HRP Conjugate (manufactured by R&D Systems, Inc.) diluted 200-fold with 1% BSA-PBS.

[2] = target: T2, C-terminally FLAG-tagged human Gas6 recombinant protein (hGas6-F) (human, UniProt Q14393 31-678, gamma-carboxylated glutamic acid residues in the Gla domain (producer cells co-express rat VKOR and human GGCX); positions not given); assay: ELISA, Gas6-F captured by anti-FLAG, biotinylated antibody
T2 construct: also called human Gas6-F; human Gas6 protein
T2 sequence: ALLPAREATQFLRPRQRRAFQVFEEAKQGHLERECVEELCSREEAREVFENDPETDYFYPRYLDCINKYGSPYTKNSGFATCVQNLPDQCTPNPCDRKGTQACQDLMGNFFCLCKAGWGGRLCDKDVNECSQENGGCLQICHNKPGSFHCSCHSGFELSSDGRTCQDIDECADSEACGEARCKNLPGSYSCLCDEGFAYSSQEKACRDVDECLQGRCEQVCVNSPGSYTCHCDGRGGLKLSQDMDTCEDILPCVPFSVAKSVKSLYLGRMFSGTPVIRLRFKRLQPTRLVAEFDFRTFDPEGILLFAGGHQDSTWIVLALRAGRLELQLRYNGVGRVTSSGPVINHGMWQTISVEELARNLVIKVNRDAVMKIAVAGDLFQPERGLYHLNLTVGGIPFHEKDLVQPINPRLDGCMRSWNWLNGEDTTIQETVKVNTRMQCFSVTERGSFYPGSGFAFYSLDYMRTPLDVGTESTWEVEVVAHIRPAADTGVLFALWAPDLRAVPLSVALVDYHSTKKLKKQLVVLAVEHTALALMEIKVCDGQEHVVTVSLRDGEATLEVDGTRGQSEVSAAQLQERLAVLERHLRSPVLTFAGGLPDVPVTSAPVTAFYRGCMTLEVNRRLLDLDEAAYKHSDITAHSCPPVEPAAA
Procedure: After removal of the immobilization solution, 1% BSA-PBS (manufactured by Nacalai Tesque, Inc.) was added thereto at 300 μL/well, and the plate was left standing at room temperature for 1 hour for blocking and washed five times with Tween 20-PBS (manufactured by Wako Pure Chemical Industries Ltd.).
Each antibody solution was dispensed thereto at 50 μL/well, and the plate was left standing at room temperature for 1 hour. This plate was washed five times with Tween 20-PBS. Then, Streptavidin HRP Conjugate (manufactured by R&D Systems, Inc.) diluted 200-fold with 1% BSA-PBS was dispensed thereto at 50 μL/well, and the plate was left standing at room temperature for 1 hour. This plate was washed five times with Tween 20-PBS, and TMB (manufactured by Sigma-Aldrich Co. LLC) was added thereto at 50 μL/well and reacted. At an appropriate point in time, the reaction was terminated by the addition of 1 N hydrochloric acid (manufactured by Wako Pure Chemical Industries Ltd.) at 50 μL/well. The absorbance at a sample wavelength of 450 nm and a reference wavelength of 570 nm (450 nm-570 nm) was measured using a plate reader.

binding result [1]: no binding (tested: 5 µg/mL)
antibody concentration at which binding activity was detected [2]: 0.0003 µg/mL
B1: anti-human Gas6 mouse monoclonal antibody KM5320 (KM5320-mKG1 antibody) (antibody, V domains shown)
VH: QIQLVQSGPELKKPGETVKISCKASGYTFTNYGMNWVKQAPGKGLKWMGWINTETGEPTYSDDFKGRFAFSLETSATTAYLQINNLRNEDMATYFCAREDGYYGTLDYWGQGTSVTVSS
VL: SIVMTQTPKFLLVSAGDRVTITCKASQSVSNDVAWYQQKPGQSPKVLIYYASNRYTGVPDRFTGSGYGTDFTFTISTVQAEDLAVYFCQQDYSSPWTFGGGTKLEIK
notes: Hybridoma-derived mouse IgG1, kappa; also called KM5320 antibody

binding result [1]: no binding (tested: 5 µg/mL)
antibody concentration at which binding activity was detected [2]: 0.0003 µg/mL
B2: anti-human Gas6 mouse monoclonal antibody KM5321 (KM5321-mKG1 antibody) (antibody, V domains shown)
VH: QIQLVQSGPELKKPGETVKISCRASGYTFTNYGMNWVKQAPGKGLKWMGWINTNTGEPTYTEEFKGRFAFSLETSATTAYLQINDLKNEDTATYFCARDEGWFVYWGQGTLITVSA
VL: ETTVTQSPASLSVATGEKVTIRCITSTDIDDDMNWYQQKPGEPPKLLISEGNTLRPGVPSRFSSSGYGTDFVFTIENTLSEDVADYYCLQTDSVPLTFGAGTKLELK
notes: Hybridoma-derived mouse IgG1, kappa; also called KM5321 antibody
